Measured values taken from patent US20170202936A1, “Identification, Optimization And Use Of Cryptic HLA-B7 Epitopes For Immunotherapy” (VAXON BIOTECH, priority 2006, published 2017).

Biological target: HLA-B*0702 (human)
Assay: T2-B7 cells, HLA-B*0702 surface expression (ME-1 mAb); ratio to reference peptide CMV265-274 (SEQ ID NO: 9)
Conditions: remark: other sources report otherwise

RA (relative affinity): > 10
Binder: DPRRLVQLL [TERT444]
